Source: the DeepSol protein solubility set

assay: soluble on expression in E. coli; label from the status in PepcDB or PDB records

| Sequence | soluble on expression in E. coli |
| --- | --- |
| MGSDKIHHHHHHMNEAQQLQQMQPLLYKQLQKSFEHGRLAHAYLFEGDTGTGKQEFGLWMAKHVFCTNLVNQQPCNECHNCVRINENEHPDVLRIAPDGQTIKVNQIRELKAEFSKSGVETAKKVFLIQEADKMSTGAANSLLKFLEEPEGQILAILETTSLSRILPTIQSRCQTLHFQPLVKKTLIDRLIKQGIGEKTATLLAELTNSFEKAVEISQDEWFNEAREIILQWFNYLKSNDLQAFIYVQKKMVKVFKEKEQQALSFDLLMVYYRQLLEESVATQQAKKVTEEQAERLALILKARQKWTANVSWQNVCEQLVIQMIHPKS | not soluble |
| MGSDKIHHHHHHMNEIKRIDTVQQYNDYFGMETLHPLVTVIDAREANPVHFCPKLYNLYAILMKDPDCGTLKYGRSIYDYQQGTMLFLAPGQVMGSDDDGQLHQPGGWLLAFHPELVRNTPLAQFIKNYSFFSYSANEALHLSEQERRTIIDCMCKIREELLHPIDKHTKSLITDNIKLLLDYCERFYDRQFETRENVNLDILARFEQTLDDYLASNLPISKGTPTVQYCADKLCLSANYLSDLLKKETGVSALKHIQQKMLDIAKERVFDVTKSISEISYELGFPYPQHFSRWFKKMVGVTPNEYRQNRNN | not soluble |
| MGSDKIHHHHHHMNELTKQLQEIMVPKAALIAYEYQEGHYASGSHYLELRPINKKGRMEAGIPVTYEFMDSLVESYSDGNRRIPHGWLPPNMLWCDTRRGHESYVWYNPPGKRRMFFKNDLNIGDGMFHVPGVIYIIKNERMDIFAYKGKKPDGRTPLYLAPFFNVTGGNVCLGNSTLEKPESLDFHTLLEYWEKRFWLSEFSHLGGGKNPTRNNLVLVTERMREQPFDNDELQPINKRLKDILP | not soluble |
| MGSDKIHHHHHHMNETSSYTIEEVAGLLKVSKLTVYDLIKKGVLPAYRVGRQMRVDEEDLKQYKTNMRMSQPIAAKEAPKQVQEAEPDGRPNVMISGQDISMDILSKHLENAIQETPLRKYKGSLNSLIDMYQGKCDIVSLHLYDAETGQYNAPYVKRILTGEPFCLINVVLRKAGLYVQKGNPKNIQGWKDLKRADIRIINREKGSGARVLLDEQLGLLGVNPADVVGYGDIVTDHYAAASQVSSGQADAGIGAQHAAHMGSVDFIPLIDEQYDIVVLKKNEQLLKAVKEILNSEDYKANLSHLNGYETKLTGKVILET | not soluble |
| MGSDKIHHHHHHMNFQIVINNIQHIGYAELDVDLNASGIICIVGKNGVGKTTLIKAILNLKSADTFSRTASPGIFKANSSMRCTYGENSYEFSFDSDINDLNSRSPIPEELKSVIDVELPMPFGQRFNNYQNIMSADMDIRTALILGEYEVPVELISFLSDIYKTNKFNGLVEVSAKGGSYYCIPLDDDRYVREDHLSSGEFFLISLYRKIKGRSKFIVIDEIDISLDAAAQAHLIGWLRRFCTTEQVKVVFTTHSLALMRTLKDGELFYMEESEGKVSVIPSSYNYIKSVLFGFKGWDRYILTEDAMLKSLLEYVLANYCSGLFFSYQIIHVGGGSNVVDLMRQNSTEGFFSTPENVISVLDGDQAEYRYARRPNVYCIPFLSVEKAIFAEYKAGRFLPELAPDPRFDTPKNFCSAIGRDRHATEADIIKYLCDSYPTEVRRFAQTLSDFLS | not soluble |
| MGSDKIHHHHHHMNGSATRTVAGVSVPDTTIVARTLDYARLEYEPYLFNHVVRSWLFAVRIAQLRNIDHDAEVVAVGTLLHDVTLNERFDGPRRFEVEGADLARVFAREGGVDERRAQLIWDSVALNSTPSIGLYKEAEVALCTAGIGLDVIGFQYERIPSEEIARIVQEYPRLNMKRRMTKCFCHIAEKRPETTYDNFVRDFGERHILGYRAPSSVDLVANAPFDE | not soluble |
| MGSDKIHHHHHHMNHIMLGTTNISIFPLVFGTLPLGPLQAGLSPSEGGRLIRHALEHGVTMIDTATLYDTYPHVREGIAGWQGDVTIVTKTHANDGPTARAHVEKGLRELGRERLDIVHLHGARVADPFSDRADVLAELLRMKDEGKIGHVGLSSHYICAILKAADHPEIEVVHPLINRTGMGILDGSAAEMAEAIAACARAGKGVYAMKALAGGNLIAEARASLAYVRGLEGVHGVAIGMLSEAEVEANIALFSGNAPEDEVWRQLESRRRKLRIMENFCKGCGGCVEACASGALTVVNGKAVLDEAACILCGYCAASCPEFIIRVV | not soluble |
| MGSDKIHHHHHHMNIIIIGAQASGKMTIGQEIAKQTGMTLFHNHDSIDFVLRFMPWSPDSIALTESIRFKFFETFAKTGQEMIFTIVIDFNDSRDVVFLEKIQIVFQSHNQEVLFVELETELSERLKRNRTENRLKHKPSKRDIKWSESDICSTMDYAIFNPEVAPEALTYYHKINNTCLTATETAYLIIQKINQIKEKN | not soluble |
| MGSDKIHHHHHHMNIKDLQYYVSLTQLKNFSLVAAQFHVSQPTISAAIRRLETELKTQLLIRANPHLPVALTTTGIQVQRHANQILLEHQLMCQEVAHTTTDQLVIGMPPIIEINYFPRIASQLPQALFSQIQPISQGSLAALKGLKNGQLDLAVLAYLNEFTDTTIQLTTFDTQSFSIVVPTDDPLATNSQLQFRSLRHQHFVALKDNFVHRQAFRQLSHQNHVRPTIVFESNEIGSILNMVRQHVGIALLSNAVQLPAGLQRLPLTDAQAPTFNVGVAYRHSMTFSPTQADLIQRLTAAFQSVDWRAY | not soluble |
| MGSDKIHHHHHHMNKHIASMLLGALLLNVGCSAIMSEKGFITQDKQVTQFNTEYIEKLAQSLPQHMVNQISIDGDEQVSLKGLFIDNPNSHTLVFFIQGNGMKVDPDSLAVLLTLSQLGTDIAIFDRRGLGASNGQATIANLLTDAIQELTFIRHTYQPDKVIVHGYSLGSFIAAQLVKNQAADALVMQGSATNVDDWIATKIPWYMPFLTVETPESFKLVDNQEVVSKFYQGPLMVIGAEKDDQVPAELSEKLFLASQSKIKSLIIVPKANHGEMLNSAKTMQAYREFLARI | not soluble |
| MGSDKIHHHHHHMNKKFLLTGASGFVGKHLYSINPSQFRCVVREDGERFPDAYKVNGINSKTDWTDSFLDIDCIIHLAGLAHSNNNRNDEYRETNFLGTLCLAQQASKSGVKRFVFVSSIGVNGNATLEKPFSIFDEPKPLNSYTNSKYDAEIGLKKIAAETGLEVVIVRPTLVYGPNAPGNFGLLTKLVKKLPVLPFGLANNKRDFIAVQNLADLLITCATHPNAAGHMFLASDMETVSIKQFTNAIADGLGKKVFQFPIPVSLMRLTGKLMRKSAMVEQLLGNLQVDSSNIKEVLDWTPPLTMKQAMTTLCDSGKSS | not soluble |
| MGSDKIHHHHHHMNKYIMLLMVSLLSACSSTPRKPIPDDPFYAPVYPDAPATQTAATGSIFLDSQASSLYSDIRAHKIGDIITVVLMESTQAKKSATNDIKKGSDMSMDPLFAGGGNVTIKGVPLDLKYKDAYNTKRESDADQSNSLAGSISANVMQVLSNGNLVIRGEKWISINNGDEFIRVTGIVRSQDIKPDNTIESVRVANARIQYSGTGTFADAQKVGWLGQFFLGEWWPF | not soluble |
| MGSDKIHHHHHHMNLATSERAQLATLLLEKGPNFPTLCGDWNTQELAAHLLIRESRPWIAAGMFLPGGSRIVADAMRKITQQPFEHVVAQWMKGPKWGYLGRYLDSVANRIEHFVHHEDVRRGETTVGQWQNLDLLPCNAKPRVLSERHSGELYDAMRWVAPLLLRRSACPVVIEPIGFPRLVVADAGVVSTRGDCVVHVRGDIGEVVLWILGRNQVDLFVDGPTHLLKKSSL | not soluble |
| MGSDKIHHHHHHMNLAYLILAHNNPNHLQKLISSLDTSDVHFFVHIDGKSNILPFQANLISNKVTFVQERRNIFWGEFSIVQATIDLMKTALNKQDFDYLILISGSDYPLKNAQYIKDFFSKNKGSEFINLVELPNEQASKNLNRLYQYRISFSSKNIVLRAFRRVINCIINDLFHWQRNYRKSLGELKPYAGSQWWALSGDACNYILNFIAKNPEILKFFQTALIPDESFFHTILANSDFLTKVKPNLTFTKWNDTAHPEYITVEIVRDFKGMDAIYNHSIGGYGEVLFARKFAPDSDEVIKFINDNIA | not soluble |
| MGSDKIHHHHHHMNLLSLYHFFAGKASDKQKEAIKRWAESSPDNYETLCREKKIFDAGILLVDKKELFQKENAPLLYKLINYTVKIAAVVLLVVVSVTIYKYQELVKKSEVLQTILVPAGQRINIILPDSTFVCLNSNTKFSYPSVFATNNRKVKLDGEAYFEVSANKNKPFYVHTSKGEIKVLGTHFNLEAYSNADVFKTSLFEGKVRVRVKGNNIYLKPDQMVCYHKNGKIHLETIHDYDQFRWREGLICIKSAKLKDIMKTFTKYFGDSIVIQNKEVEHYKYTGKFRQSRGVINALRLLQKDAPFTIEQDEDKQIIYIK | not soluble |
| MGSDKIHHHHHHMNNKIYFTPGPSELYPTVRQHMITALDEKIGVISHRSKKFEEVYKTASDNLKTLLELPSNYEVLFLASATEIWERIIQNCVEKKSFHCVNGSFSKRFYEFAGELGREAYKEEAAFGKGFYPADITVPADAEIICLTHNETSSGVSMPVEDINTFRDKNKDALIFVDAVSSLPYPKFDWTKIDSVFFSVQKCFGLPAGLGVWILNDRVIEKSKALLAKRKSIGTYHTIPSMLEKARVNQTPETPNAMNIFLLGKVTGDMLQISADGIRKQTEEKAALINTYIESSKVFSFGVEDAKLRSMTTIVANTTMLPGEINKILEPFDMAVGAGYGSKKETQIRIANFPAHSLEQVHKLVQTLKEKIG | not soluble |
| MGSDKIHHHHHHMNNMEIWVVDDDRDYCELIVEMLQDEFKVSPFYGAADFRVALQTQKPDLLLMDINLPDTDGITLCRELQASNQEVAVLFVSGMNTLEERLKAYEVNAVDFIAKPFELKELLAKVHSVAHYVMKQRELIQAESVSRNMAFQSMTESSQYGCVLQFFRQCFLCNDHQTLADAFFDLMQQLNLNTCLEIRGENVEYFAPRHAAISPIESNILELLDKHGRLYDFGCRTICNDKHVSFLIKNMPINDEVLYGRLRDIIAVVVEGLEARVLDISRQQTLTQVFLDIESLIGDINVATLEHDEKFSAALINMTTEIRGSFHVLDMTIEQEDYFTALIERNLKEVKSASEAFTRLQSALGKVMDVLGGSVS | not soluble |
| MGSDKIHHHHHHMNPGWRVVDLIDFDGKVSYQRGQLAITSDSGELRATLPLAQIAVVLIGNKLIISGAVLVKLSEYDIAVLVCDWRRVPVAGSFSWNEHTRIAARQRAQASLSLPRQKSAWAQIIKAKILGQARTAAQLGFDATDLKNLARAVRSGDVDNREAMAAKRYWEIISAEDDFRRLPGLAATGWNGALDYAYTVLRGHGMRAICSAGLVGTLGVFHHGRGNQFALVDDLIEPFRPAIDYAVFSIVSNSQELDKETKRQLVAAVEEPFNSAGQSIPTVFTAFAQQYGRYVEGDVEKLVPPIWEGPFDAEER | not soluble |
| MGSDKIHHHHHHMNPLNLIECLEQKERYTYNEGLIIDFILSHTERVLHMSIYELAEATNSSTSTIVRLCKKTETSGFKEFKIRLSRDLEIHYQAIRNVDANMPFLAQDSDLLIAKKIAQLTTETVQSTQQLLTEAMLNKSIDLLLTAENILAVGVSNSYIRLTDFQTKLLRIQLFIHLIPYQAEQFYLAINATKNDVAILVSYSGNTAEIVNEARIFAEGGTPIIAITSDLNSQLAKYATVILPIPNVEHADFKVSTFSSQLAIEYILNVLYSCIFSRNFDKNYTSQKNTPTSILKF | not soluble |
| MGSDKIHHHHHHMNPVLKSSKLVIFDLDGTLYEGTDHFDYYANHLKQNVPQSQQLDFWRDYTAMKDGHHPVQIGKGYDVKRDYILTIDPMTISVQSVQTWDGSYVPAEEWETLYSDPVSFDFETIIAVGDGWWYPFVTAKHYGVEDCYASYVATKEYMVTDEFELTPLPGLREGLIELKATKEIVLVTNSDREDVQRLLHELHLHDVFNHIITSAKKPTRTTDIFKEVVHQYEVDMSQVVSVGDNFMNEIAQALTLGMQGIYIHPQRASEVAHDHLTVIRSVVELFKN | not soluble |
